Measurements from patent publication US20250236644A1 (University of Washington, published 2025).

T1: TAMRA-labeled effector peptide cs094B (5(6)-TAMRA label coupled on resin after synthesis)
T1 construct: also called TAMRA-cs094B
T1 peptide: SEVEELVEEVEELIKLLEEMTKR

T2: TAMRA-labeled effector peptide cs201B (5(6)-TAMRA label coupled on resin after synthesis)
T2 construct: also called TAMRA-cs201B
T2 peptide: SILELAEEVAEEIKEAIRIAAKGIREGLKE

T3: TAMRA-labeled effector peptide cs074B (5(6)-TAMRA label coupled on resin after synthesis)
T3 construct: Chemically synthesized; also called TAMRA-cs074B
T3 peptide: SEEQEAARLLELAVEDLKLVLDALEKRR

T4: TAMRA-labeled effector peptide cs221B (5(6)-TAMRA label coupled on resin after synthesis)
T4 construct: also called TAMRA-cs221B
T4 peptide: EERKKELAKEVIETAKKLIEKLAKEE

T5: TAMRA-labeled effector peptide cs207B (5(6)-TAMRA label coupled on resin after synthesis)
T5 construct: also called TAMRA-cs207B
T5 peptide: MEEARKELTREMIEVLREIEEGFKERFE

T6: TAMRA-labeled effector peptide cs217B (5(6)-TAMRA label coupled on resin after synthesis)
T6 construct: also called TAMRA-cs217B
T6 peptide: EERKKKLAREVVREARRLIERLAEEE


Key:
[1] = target: T1, TAMRA-labeled effector peptide cs094B; test: fluorescence polarization titration; TAMRA-peptide constant, hinge varied
Source text: (§1) We used our hinge design approach to generate hinge-peptide pairs that span a wide structural space (FIGS. 1D, 2A, 6, 7). We experimentally tested multiple rounds of designs, using both DHRs (21) and helical junctions (22) as input scaffolds, and improving individual steps of the design pipeline between iterations. Designs for which hinge and GFP-fused peptide were soluble and interacted as judged by size exclusion chromatography (SEC, FIGS. 7-8) were selected for further characterization by fluorescence polarization (FP). […] To circumvent the bottleneck of finding soluble peptide sequences, we also sought to design hinges that bind to a given target peptide. Starting from design cs201, we used a modified version of our design pipeline to redesign the hinge to bind peptides cs074B or cs221B, respectively, which have similar hydrophobic fingerprints as the original target peptide cs201B.
(§2) All FP measurements were performed at 25° C. in 96-well plates (Corning 3686) using a Synergy Neo2™ plate reader and a 530/590 nm filter cube. The buffer for all FP measurements was 20 mM Tris-HCl, 100 mM NaCl, 0.05% v/v TWEEN20 at pH 8. Titrations were carried out in 96-well format, with 4 replicates per plate and 24 data points per titration (23 steps of two-fold serial dilution of hinges in the presence of TAMRA-labeled peptide at a constant concentration between 0.1 nM and 1 nM) with a final sample volume of 80 μl per well. Titration plates were incubated overnight at room temperature before measuring to ensure complete equilibration. The polarization signal S (as calculated by the Neo2™ software) was fitted to the equation

[2] = target: T1, TAMRA-labeled effector peptide cs094B; test: fluorescence polarization kinetics; slope of kapp against hinge concentration
Experimental: as §2
(§3) For FP kinetics experiments a 2× peptide solution and 8 different 2× hinge solutions at different concentrations were prepared separately. 40 μl of each hinge solution were mixed with 40 μl peptide solution using a multichannel pipet and the measurement was started immediately after mixing. Polarization signals S at each concentration were fitted individually to the equation

[3] = target: T2, TAMRA-labeled effector peptide cs201B; test: FP titration, 1 nM peptide, hinge varied
Experimental: (§4) FIG. 10. Redesign of hinges to bind other target peptides. An experimentally tested hinge (top, cs201) is redesigned using a one-sided two-state design approach to bind to different target peptides. Hinges csw13 and csw20 are designed to bind to peptides cs221B and cs074B, respectively, while having a backbone conformation that is similar to the parent cs201 that binds cs201B. Left: design models, right: FP titrations using 1 nM peptide (cs201B, cs221B, cs074B, js007B) and varying concentrations of hinge (from top to bottom: cs201, csw13, csw20). csw13 is an example of a successful orthogonal redesign that specifically binds the new target peptide cs221B while not binding the parent target peptide cs201B or the off-target peptides cs074B or js007B. csw20 is a less orthogonal example that binds the new target peptide cs074B most strongly but still binds to the parent-target peptide cs201B and to the off-target peptide cs221B albeit weaker than the new target.
as §2

[4] = target: T3, TAMRA-labeled effector peptide cs074B; test: FP titration, 1 nM peptide, hinge varied
Experimental: as §4, §2

[5] = target: T4, TAMRA-labeled effector peptide cs221B; test: FP titration, 1 nM peptide, hinge varied
Experimental: as §4, §2

[6] = target: T5, TAMRA-labeled effector peptide cs207B; test: fluorescence polarization titration; TAMRA-peptide constant, hinge varied
Source text: as §1, §2

[7] = target: T4, TAMRA-labeled effector peptide cs221B; test: fluorescence polarization titration; 1 nM TAMRA-peptide, unlabeled hinge varied
Experimental: as §2

[8] = target: T4, TAMRA-labeled effector peptide cs221B; test: fluorescence polarization titration; TAMRA-peptide constant, hinge varied
Source text: as §1, §2

[9] = target: T4, TAMRA-labeled effector peptide cs221B; test: fluorescence polarization kinetics; slope of kapp against hinge concentration
Experimental: as §2, §3

[10] = target: T4, TAMRA-labeled effector peptide cs221B; test: fluorescence polarization kinetics
Source text: To test the effect of the conformational pre-equilibrium on effector binding, we introduced disulfide “staples” that lock the hinge in one conformation. Using FP we analyzed peptide binding to stapled versions of hinge cs221 (FIG. 5A,B). […] Using the pre-equilibrium model described above, the observed association rates provide an estimate of the fraction of hinge that is in state Y in absence of the peptide: a 200-fold higher observed on rate for the locked Y variant indicates a 200-fold higher fraction of hinge in state Y compared to the original hinge. Assuming that the locked Y variant is 100% in state Y and assuming that the microscopic rate constant k₂ is identical for the locked Y hinge and state Y of the original hinge, this would indicate that the original hinge is 99.5% in state X and 0.5% in state Y at equilibrium.
as §3

[11] = target: T6, TAMRA-labeled effector peptide cs217B; test: fluorescence polarization titration; signal never reached a plateau, only a lower bound can be estimated
Experimental: as §2

[12] = target: T2, TAMRA-labeled effector peptide cs201B; test: fluorescence polarization titration; TAMRA-peptide constant, hinge varied
Source text: as §1, §2

[13] = target: T2, TAMRA-labeled effector peptide cs201B; test: fluorescence polarization kinetics; slope of kapp against hinge concentration
Experimental: as §2, §3

| Kd [8] [nM] | kon [9] [M⁻¹ s⁻¹] | Binder | further results |
| --- | --- | --- | --- |
| 4.9 | 1900 | cs221_A73E (designed binder, Point mutant of hinge cs221) MSGEMKEEIRRLAEELRERTKDEEVRELAREAARLAEESDDEEVKEVVKKALEAALKSKDEEVIRLLLLAAVLAAEAARSGSPEEKLEIAKKALELAMKSKDEEVIRLALLAAVLAARSDDEEVLKKVKEALEKAMESKDVEEIRERLREAVEVARAGSGSHHWGSTHHHHHH | – |
| 12 | 790000 | variant cs221_lockedY (designed binder, disulfide bond between the two introduced cysteines (locks the hinge in state Y; oxidized with copper phenanthroline), also called cs221 locked Y hinge variant) MSGEMKEEIRRLAEELRERTKDEEVRELAREAARLAEESDDEEVKEVVKKALEAALKSKDEEVIRLLLCAAVLAAAAARSGSPEEKLEIAKKALELAMKSKDEEVIRLACLAAVLAARSDDEEVLKKVKEALEKAMESKDVEEIRERLREAVEVARAGSGSHHWGSTHHHHHH | fold higher association rate than the original hinge cs221 [10]: 200 fold |
| 0.3 | 24300 | cs221_V111L (designed binder, Point mutant of hinge cs221) MSGEMKEEIRRLAEELRERTKDEEVRELAREAARLAEESDDEEVKEVVKKALEAALKSKDEEVIRLLLLAAVLAAAAARSGSPEEKLEIAKKALELAMKSKDEEVIRLALLAALLAARSDDEEVLKKVKEALEKAMESKDVEEIRERLREAVEVARAGSGSHHWGSTHHHHHH | – |

More lines, now with the values behind:

| Binder | Kd [8] [nM] | kon [9] [M⁻¹ s⁻¹] | further results |
| --- | --- | --- | --- |
| hinge cs094 (designed binder) MSGDEEERLRQEVEKAEKELEKLAKQSTDEEVRKMVREVAKQLRRLAEEAIRQKDDEALRQATEVVKMVQEAVKVAQKTTDQKVILLLLAVALVAIKVAQLAIRSDDTEALRLARIVIRAVQLLVKLVQKTTDPEVRRTALRVAELLAKLAKEAIERNDEEALREASEVVKEVQELVKEAEKSTDEEEIRELLQRAEERIREAQERIREGSGSHHWGSTHHHHHH | – | – | Kd [1]: 830 nM; kon [2]: 9400 M⁻¹ s⁻¹ |
| swapped target hinge csw20 (designed binder) MSGMEEVKELVEKAEELAKEAEELIKKAKKTGNPELLKEALRKLKEAVELAKEAVELDPEHEEAIELLARLAEKLLEVAKLLIELAKKTGNPELLKEALRALKEAREALRLAAEHAPEDAKLLARLAARLAELALLIAKILIELAKKTGNPELLLKALKVLTLAVEAVEAALEADPRLKEAVRVAKELAEVLKELAKLAKELAKKTGNEELKEAAKEAEEVAKRAEELAREAEGSGSHHWGSTHHHHHH | – | – | binding result [3]: binds; binding result [4]: binds; binding result [5]: binds |
| hinge cs207 (designed binder, also called cs207A) MSGTEDERRELEKVARKAIEAAREGNTDEVREQLQRALEIARESGSEEAFKLALEVVRRVAEVAARAGNVEAVKEALRVALEIVKEAMELIKDPEAIVRLALEAVRVVAEVAARAGAVEAVKVALRVALEIAKIAGTEEAVRLALEVVKRVSDIAKKAGNEDAVKEAEEVRKKIEEESGGSGSHHWGSTHHHHHH | – | – | Kd [6]: 820 nM |
| FRET(extension) cs221F, unlabeled (designed binder, also called unlabeled extended hinge cs221F) MSGEMVEEIEKLAEELAKKTKDCEVKKLAKKAAELAKKSTDEMKKEIVKDALELALRTKDEEVIRLALKAAVLAAESDDEEVKEVVKKALEAALKSKDEEVIRLLLLAAVLAAAAARSGSPEEKLEIAKKALELAMKSKDEEVIRLALLAAVLAARSDDEEVLKIVKKALELAMESKDVEVIRLALEAAVLAARSTDPEKKKCVYEALEKAMESKDEEEIKKELKAAVEKARSTEGSGSHHWGSTHHHHHH | – | – | Kd [7]: 23 nM |
| hinge cs221 (designed binder, also called original cs221; parent hinge without cysteines) MSGEMKEEIRRLAEELRERTKDEEVRELAREAARLAEESDDEEVKEVVKKALEAALKSKDEEVIRLLLLAAVLAAAAARSGSPEEKLEIAKKALELAMKSKDEEVIRLALLAAVLAARSDDEEVLKKVKEALEKAMESKDVEEIRERLREAVEVARAGSGSHHWGSTHHHHHH | 2 | 3400 | – |
| cs221_L66T (designed binder, Point mutant of hinge cs221) MSGEMKEEIRRLAEELRERTKDEEVRELAREAARLAEESDDEEVKEVVKKALEAALKSKDEEVIRLLLTAAVLAAAAARSGSPEEKLEIAKKALELAMKSKDEEVIRLALLAAVLAARSDDEEVLKKVKEALEKAMESKDVEEIRERLREAVEVARAGSGSHHWGSTHHHHHH | 38.3 | 2700 | – |
| cs221_V111L_A114T (designed binder, Double mutant of hinge cs221; also called cs221-mut) MSGEMKEEIRRLAEELRERTKDEEVRELAREAARLAEESDDEEVKEVVKKALEAALKSKDEEVIRLLLLAAVLAAAAARSGSPEEKLEIAKKALELAMKSKDEEVIRLALLAALLATRSDDEEVLKKVKEALEKAMESKDVEEIRERLREAVEVARAGSGSHHWGSTHHHHHH | 0.1 | 76200 | fold higher on rate than the original cs221 [10]: 22 fold |
| cs221_A114T (designed binder, Point mutant of hinge cs221) MSGEMKEEIRRLAEELRERTKDEEVRELAREAARLAEESDDEEVKEVVKKALEAALKSKDEEVIRLLLLAAVLAAAAARSGSPEEKLEIAKKALELAMKSKDEEVIRLALLAAVLATRSDDEEVLKKVKEALEKAMESKDVEEIRERLREAVEVARAGSGSHHWGSTHHHHHH | 0.2 | 27700 | – |
| hinge cs217 (designed binder) MSGEMKEEIRRLAEELEKKTKDEEVKELARKAAELAEKSDNEEVLEVVKEALRAALKSKDEEVRRLLLEAAVLAAAAESSGSPEEKLEVALRAIRLAEKSKDEEVRRLALEAAVLAAESDDEEVLEEVLRALRRAEESKDEEERREELREAVRRAREGSGSHHWGSTHHHHHH | – | – | Kd [11]: 20000 nM |
| hinge cs201 (designed binder, also called unlabeled hinge cs201) MSGDEEVQEAVERAEELREEAEELIKKARKTGDPELLRKALEALKEAVRAVREAIKRNPDNEEAIKTALRLARELRKVAKELIERARKTGDAELLKKALEAARVAVEAVRLAAEYNKENAEKMAELLVELAELAREVADVLIELAEKTGDPELLKKALEVLEEAVEAVRLAIEYDPDHEEAVETAKRLAEELRKVAELLEERAKETGDPELQELAKRAKEVADRARELAKKSNGSGSHHWGSTHHHHHH | – | – | Kd [12]: 22 nM; kon [13]: 6700 M⁻¹ s⁻¹ |
